In patent publication US20260184773A1, “THERAPEUTIC SINGLE DOMAIN ANTIBODY” (priority 2021, published 2026):

Tests used:
[1] = tested on: PANC-1 tumors; conditions: PANC-1 xenograft, intraperitoneal for 14 days
[2] = tested on: tSTAT3, pSTAT3 and PD-L1 in MDA-MB-231 cells; assay: Immunoblot (slot blot) of tSTAT3, pSTAT3 and PD-L1; type: cell-based, human; conditions: MDA-MB-231, 3, 6 and 24 hours, β-actin normalized, 50-100 ug/ml
[3] = tested on: ENBOV (Ebola) in HeLa; type: cell-based, Ebola virus
[4] = tested on: ENBOV (Ebola) in HFF; type: cell-based, Ebola virus
[5] = tested on: Zika in Vero; type: cell-based, Zika virus
[6] = target: HIV-1 RT (Human immunodeficiency virus type 1 group M subtype B, UniProt P04585); conditions: read-out: Binding affinity (KD)
[7] = tested on: MDA-MB-231 cells; assay: Cell penetration by immunofluorescence/confocal microscopy; type: cell-based, human

With `Nc1ccn([C@@H]2O[C@H](CO)[C@@H](O)C2(F)F)c(=O)n1` [Gemcitabine, gemcitabine, reference compound] the “% Inhibition of Control, Day 12” value ([1]; Day 12) was 19.51%, the “% Inhibition of Control, Day 15” value ([1]; Day 15) was 23.17% and the “% Inhibition of Control, Day 19” value ([1]; Day 19) was 23.26%. For the same molecule, the “% Inhibition of Control, Day 22” value ([1]; Day 22 (end of the study)) was 14.93%.

`Cc1ccc(S(=O)(=O)OCC(=O)Nc2ccc(C(=O)O)c(O)c2)cc1` [S3I-201, reference compound] was tested, and the “Levels of tSTAT3, pSTAT3 and PD-L1” value [2] was “decreased”.

B1: SBT-106 (protein)
VHH: EVQLVESGGGSVQAGGSLRLSCAASVYSYNTNCMGWFRQAPGKEREGVAVIYAAGGLTYYADSVKGRFTISQENGKNTVYLTMNRLKPEDTAMYYCAAKRWCSSWNRGEEYNYWGQGTQVTVSS
With B1 the EC50 [3] was 3.49 µM, the Comment [4] was “Does not inhibit Ebola virus” and the “EC50 [μM]” value [4] was “No”. For the same molecule, the “EC50 [μM]” value [5] was “No”.

B2: SBT-107: anti-HIV-1 Reverse Transcriptase (RT) VHH, SEQ ID NO. 4 (protein)
VHH: MGDVQLVESGGDSVRAGGSLQLSCKASGYTYNSRVDIRSMGWFRQYPGKEREGVATINIRNSVTYYADSVKGRFTISQDNAKNTVYLQMNALKPEDTAMYYCALSDRFAAQVPARYGIRPSDYNYWGEGTLVTVSSSSGLE
modifications: Camelid
B2 was tested, and the Kd [6] was 0.00385 µM and the “Intracellular staining/localization of VHH” value [7] was “no intracellular staining”.
